# Experiment: label from the status in PepcDB records
row,Sequence,protein production
1,MAALWAAEAALTPGEVQAELASDLARTTVTTILSRLYDKGVVDRRGVAMVTTPCRTPRGSPPGACIPSSTVTLTGRPSWPASSPSSIRTTNSFCASYWRPTRDDRPLLIPLLLPFVMPLLARRALDRLAPATALWALTAAALVLAGACVTALGALVLTGLLKLPAFAALGELAHPLRTPTGYLVLPAAAIATGLLTIGAWTLAHSALRQTRAFRTARAEADRRPTAGDLCVVDSPHPDAYALPGRPHRIVVTTAMLRSLKPDERDALFAHERAHNQGATTASWSIGSAACRPGRMVSYLGACGARRAGPMRGRRGPRAIPVVCRPVPRSCRGRIVGVSLPSARW,failed
2,MAANGVSSGACAVSEEEARSEAERLLADPRLHVSDRHRAFLRYIVDARFEGRSDTIKAYSIAIDVFKRPASFDPSSDPIVRIEATRLRESLQKYYAQLADEPGARLDIPRGRYVPVFVERDNPPCPEEDGELEDVGLPTEEPTQAASRPEGRNWRHAIMGGAALAAVSLTGSLAYLAASAAHLNTQKPFVALSINASQNDKAAGEAVMEDLAVSLARFGTVRLKSGASGSRVPSDAMEQSLYEINMRYAENESSVSLWWQVSDAANGEAVWTDEERRPVAAGSREEAMRDLVFAVSRRLARPAGIINTIELRRNLPSSTIGNVCVLRGEFAVEQRDAAGLEAARSCLAATIASDPTDADAMATLARVYVWIGRATGDDSYFGRGLELANRAATLSPSSPRAALAQLGVQYQLGQNEISIAAGRRGVALNPENADLLAKLSMVVFLTGHWDEGVQLARQATEIAGQPIRDASFVMILNDYRQERYAQAVFLARQVPAPDAPTTVLKLAAIARLGDRPVTQQEIAAARLQHPDLERTVTAMFSGARYDSNLRDALRAGILEAGLKMPELASNGAM,failed
3,MAANNRRMSGKKGAQVGSGGKRRRGLEGKGPTPPAEMRKGHAKQRAANAKARRTTGGRPQQRRGGGRSTSELVVGRNPVYEALREGVPASTLYVQQFIDNDERVREALQLAAERGGINLMEAPRPELDRMTNGLNHQGLVLQVPPYEYAHPEDLVAAAHDEGIDPLIVALDGVTDPRNLGAVVRSVSAFGGHGVVVPERRAAGMTAGAWKTSAGTAARTPVARATNLTRALEQYQKAGITVVGLAADGEAELGDLAALDGPVVIVVGSEGKGLSRLVGETCDFRVRIPMPGGAESLNAGVAAGIVLYEAARRRS,failed
4,MAANNRSDHGSDENTRLYNPYQNYEVPINKSQYLYKLPTSPEFLFTEEALRQRRSWGENLTFYTGTAYLGGSVAGASVGVITGVKSFESGDTTKLKINRILNSSGQTGRTWGNRIGIIGLVYAGIESGIVAATDRDDVWTSVVAGLGTGAVCRAARGVRSAAVAGALGGLAAGAVVAGKQIVKRYVPI,failed
5,MAANSNSRVASNHTSKKQKVRRNIHPFTNNTRIKRASKIVKFNDSGEGDHVSDQRSNKENVLTYKSLKSRASDLLKMRETLPVYQHKREIMSYIESNPVTVLIGETGSGKSTQIPQFVLEKLYDTKKHGSIAVTQPRRVAAINLATRVAQEHGCKLGEQVGYSVRFDNTTTTRTRLKYLTDGMLLRELMMNSDLREYSVIVIDEAHERTVLTDLILGFLKSLIQGPRPDLRIIVMSATLQAEKFSEFFNNAPILFVEGRKFDVKQYYLKAPTDDIVDAVIRCCIQINQGEELGDILCFLPGQEEIDKAVTIMEKIAKYVSDEAPVPLIVPYPLYAALPAVQQSLVFAPIKGFKRKVVFSTNIAETSVTISGVKFVVDSGLRKVKVWRHQLGLATLLTVPISQASAMQRSGRAGRESEGKSFRLYCESDYVKLPKQSEPEIARSDVTSPVLMLKRYGVDDLLNWTWFENPGKEAIVMGLQELYELGALDTRGKITKRGQQMALLPLQPHLSSVLIKASEVGCLSQVIDIVSCLSVENLLLNPSPEERDEVNERRLSLCNAGKRYGDLIMLKELFDIYFYELGKSQDASSERNDWCKGLCISIRGFKNVIRVRDQLRVYCKRLFSSISEEDEESKKIGEDGELISKILKCFLTGFIKNTAIGMPDRSYRTVSTGEPISIHPSSMLFMNKSCPGIMYTEYVFTTKGYARNVSRIELSWLQEVVTNAAAVAKQKVSDSK,failed
6,MAAPVVVAPAINLQHMDLPEGNEDVAAVLQTSTQRWLNAAEWSILYNNHNLFPESNSFTIPIEVEGLYRVDNRFNQDSNTWRNTSAPSTCKNAINFYNVRIATGLYRFDDDGDIVMDAEVQGGWVLCRKTVRNRGGGVLTFAHYMWVLV,failed
7,MAARTLPDRFIARAPVPADAPAIARLIAACQEADGDEPDASAEEVLRDWEGLDLGQEAVLVVAPDGEAAAYADVLNRRYVQLSVYGYVHPRFRGMGLGTWLVQWGEEWIQDRMHLAPAEAQVTVQHYIRASSTSALRLMEQHGYRPVRDIWVMAITLDQPPPAPEWPEGITARTFVPGLDERATYEAVEEAFGDIWGRPPSTFERWLSMTQSERKDPELWLLAVETDSGHIVGTCLGQETAGKGWIGSVGVRRPWRGRGIALALLQEVFGVYYRRGVREVELSVDAESRTGAPRLYRRAGMHVKHRYVLHRKEIRPGIDLSTTAAHS,not failed
8,MAASDSRNNRADEPGFVVQPKGEHRVIIVWLHDKDERSSDSLQFVEQLNLKNVKWICPSLVFPDSFIKGVGGLGMGAAVALHFATSCALNHYTINPRVVVGISGWLSNSGSLKRSIESASHGAPARAASQSIFITHGICKSNRLLFQCDSVPHPCDCGEEAVLSLREAGFRDVKFTPFARFGPTAHENNRNVMVKSWLEEKLQLDVTIP,failed
9,MAASSACLVGNGLSVNTTTKQRLSKHFSGRQTSFSSVIRTSKVNVVKASLDGKKKQEGRRDFLKILLGNAGVGLVASGKANADEQGVSSSRMSYSRFLEYLDKDRVNKVDLYENGTIAIVEAVSPELGNRVERVRVQLPGLSQELLQKLRAKNIDFAAHNAQEDQGSVLFNLIGNLAFPALLIGGLFLLSRRSGGGMGGPGGPGNPLQFGQSKAKFQMEPNTGVTFDDVAGVDEAKQDFMEVVEFLKKPERFTAVGAKIPKGVLLIGPPGTGKTLLAKAIAGEAGVPFFSISGSEFVEMFVGVGASRVRDLFKKAKENAPCIVFVDEIDAVGRQRGTGIGGGNDEREQTLNQLLTEMDGFEGNTGVIVVAATNRADILDSALLRPGRFDRQVSVDVPDVKGRTDILKVHAGNKKFDNDVSLEIIAMRTPGFSGADLANLLNEAAILAGRRARTSISSKEIDDSIDRIVAGMEGTVMTDGKSKSLVAYHEVGHAVCGTLTPGHDAVQKVTLIPRGQARGLTWFIPSDDPTLISKQQLFARIVGGLGGRAAEEIIFGDSEVTTGAVGDLQQITGLARQMVTTFGMSDIGPWSLMDSSAQSDVIMRMMARNSMSEKLAEDIDSAVKKLSDSAYEIALSHIKNNREAMDKLVEVLLEKETIGGDEFRAILSEFTEIPPENRVPSSTTTTPASAPTPAAV,not failed
10,MAATGVDKDRPRAMTSTTYLGLLLVGIQVLGFVAAIHAVLTVRTAQGAIAWATSLVFMPYLTLLPYLVFGRSRFDAYIEARRQANREMHLAAAELDWRPWVEEALAARQVSGYKGLKALVRMTRTPTLANNRVRLLVNGEASFEAMFKAISAARQVILVQFFIVRDDALGQRLQQLLLERAANGVEVFFLYDAIGSHALPHRYVERLRQGGVQMHGFSTGSGMLNRFQVNFRNHRKVVVVDGECGFVGGHNVGVEYLGEKPPLAPWRDTHMELRGPAVACLQESFAEDWYWATHSLPPLILPPQYDSEGALCQVVASGPADAQETCSLFFVEMINAAHERVWITSPYFVPDEAVMAALRLAVLRGVDVRLLIPSRPDHRTVYAASSLYALEAIRAGVKVFRYQPGFLHQKVVLVDRDTAAVGSANLDNRSFRLNFEVMVVTVDEGFAGEVEAMLEADFAESLEFTPEDRRSVRRLQQLGMRVARLVSPIL,failed
11,MAAYGLYTHIASNKLRSMLLLAGLFALVYVLVYAGALVAEVVINGNETVAFYLSHAFLDLKVAAPVATVVTAVWVVIAYFFHQSMIDAVTGGHDVTRKEEPRLYNLLENLCISRGITMPKLKIMESPALNAFATGLNPRQYSITVTTGLLNALNDKEIEAVLGHELTHIKNGDVQLMVVAVIIAGVVGFFGELFFRLFTNLSWNSGGSWSSGSSSSRSSSSSSDSKNSGGGAVIVIIIAVVLIVVAWLMSQVVKLALSRSREYLADAGSVELTKDPDAMISALRKIENRGELPGATSAVMELCVDNPREGFADLFATHPSVQSRVDALVKFAGGHDPGPLPDPTDETEQPEAQGAPQDAPPPLSQRPWGDAAGPANPPPVPAPSPSGTTAGNPIGNPMGPWGRH,failed
12,MACIHIESSHPPAWKTHSVQENKPANADDISNTTLPEHHDGGDGGIQETWAAIGDSGGRGGGYFAGESRKKLEKKKSQVLLEGYALDDQDDLTRAKSLTDDDLEELKGCLDLGFGFSYDEIPELCNTLPALELCYSMSQKFLDDKQQNHHKSQEEDDSSPPPTTTAPIANWKISSPAELESIFIFEPEKDRLCKNEVSAIVR,failed
13,MACNTCKMCESADKKLESFVASKDVETAFHRTEDQKVKCGFGLQGVCCRLCSNGPCRVTPKSPRGICGADADTIVARNFLRAVASGAACYLHVVENTAKNLKNVGITKGVVKGEKTLNQLAEMFGIESDEKYDKCIKVADKVINDLYKSRDDKMELVEKIAYAPRVKKWKELGIMPGGAKSEVFDAIVKSSTNLNSDPVDMLVNCLNLGISTGLYGLTLTNLLNDVMLGEPVIRMAPVGFNVIDPDYINIMITGHQHSTFANFQDRLKDEDVIKLAQSVGAKGFKLVGCTCVGQDLQLRGEHYQEVFAGHAGNNFTSEAVLSTGAIDIVLSEFNCTIPGLEPIADKYKVKMVCLDDVAKKANAEYIGLDRSKLDELSNTLIEKALESYKERRGSIEIDIPKDHGFEQSLTGVSEKNLKAFLGDSWKPLINLIAEGKIKGVAAVVGCSNMTAGGHDVNTVELTKELIKKDIIVLSAGCSTGGLENVGLMSPGAEELAGENLKEVCKTLGIPPVLNFGPCLAIGRLEIVATELAAELGIDLPQLPLVLSAPQWLEEQALADGAFGLALGLPLHLALPPFITGGKLVTEVLTEKLKDLTGGHVIVNPDPKSSANQLEEIIIDRRKNLGLKDVECNA,failed
14,MADERYNRKNPAVKRILQEVKEMQANPSDDFMSLPLEENIFEWQFAIRGPGDTEFEGGIYHGRIQLPADYPFKPPSFMLLTPNGRFETNTKICLSISNYHPEHWQPSWSVRTALVALIAFMPTSPNGALGSVDYPKDERRTLAIKSRETPPKYGSPERQKIIDEIHQYILSKATVVPKPLPLECSQAPSIVSEAHSQVEPQEAITVVEERSIATTDTIVDDQIIEETAEAVNTAASVVPAAAPLPAVEVVVKASVSGEQRMARRAAQKPVDDRLFTWAAVGLTIAIMVLLLKKFIKSNGYSTGFMDDQS,failed
15,MADFQGETEMTAEVFDPRALRDAFGAFATGVTVVTASDAAGKPIGFTANSFTSVSLDPPLLLVCLAKSSRNYESMTSAGRFAINVLSETQKDVSNTFARPVEDRFAAVDWRLGRDGCPIFSDVAAWFECSMQDIIEAGDHVIIIGRVTAFENSGLNGLGYARGGYFTPRLAGKAVSAAVEGEIRLGAVLEQQGAVFLAGNETLSLPNCTVEGGDPARTLAAYLEQLTGLNVTIGFLYSVYEDKSDGRQNIVYHALASDGAPRQGRFLRPAELAAAKFSSSATADIINRFVLESSIGNFGIYFGDETGGTVHPIANKDAHS,not failed
16,MADIDQASKTEMEAAAFRHLLRHLDEHKDVQNIDLMIQADFCRNCLAKWLMEAATEQGVELDYDGAREYVYGMPFAEWKTLYQKPASEAQLAAFEAKQAARKR,not failed
17,MADKAFHTRLINMRRDLHEHPELSFQEVETTKKIRRWLEEEQIEILDVPQLKTAVIAEIKGREDGPVIAIRADIDALPIQEQTNLPFASKVDGTMHACGHDFHTASIIGTAMLLNQRRAELKGTVRFIFQPAEEIAAGARKVLEAGVLNGVSAIFGMHNKPDLPVGTIGVKEGPLMASVDRFEIVIKGKGGHASIPNNSIDPIAAAGQIISGLQSVVSRNISSLQNAVVSITRVQAGTSWNVIPDQAEMEGTVRTFQKEARQAVPEHMRRVAEGIAAGYGAQAEFKWFPYLPSVQNDGTFLNAASEAAARLGYQTVHAEQSPGGEDFALYQEKIPGFFVWMGTNGTEEWHHPAFTLDEEALTVASQYFAELAVIVLETIK,not failed

# From a protein production outcome set (Wang et al. 2014)
